tested on: Saccharomyces cerevisiae; assay: transcriptional activation domain activity (GFP:mCherry ratio, weighted mean of sorted bins, harmonized to initial dataset scale) (arbitrary fluorescence ratio units); higher = stronger transcriptional activation; settings: beta-estradiol 1 µM; induction time 4 h
Method: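 53-aa protein tiles (fungal proteins plus yeast TF control tiles) fused C-terminally to a DBD-estrogen-binding domain-mCherry synthetic TF, integrated in S. cerevisiae (URA3 locus) with a GFP reporter. Cells were induced with 1 uM beta-estradiol for 4 h at 30 C, FACS-sorted into 8 bins by GFP:mCherry ratio and barcodes sequenced. Activity is the read-weighted mean bin fluorescence (GFP:mCherry), averaged over barcodes (median 12); tiles under 50 reads were discarded. New active-learning values were harmonized by linear fit onto the scale of the initial (Hummel et al.) dataset. The assay saturates at low and high signal.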

Row | Sequence | transcriptional activation domain activity
1 | AAPTETAPPAAEPAPVAAPIETKAAEPAAPVTEAPATTATEEVKPAVEPAKTE | 49400
2 | AAPVAEAAPATEAAPASEPSTEAEVPKEEKTEDKKEEKAPKSPKIGRRLSSRV | 17000
3 | AAPVKKEEPKKEETPKAAEETATAPVAETPAVAAAAATEAPKEEAKEEPKRRS | 35400
4 | AAPVVAKKDDKKDKKKEEKKGEKEEKKPADEKKGGDKPKKEKKKAEKKPAAAP | 22200
5 | AAQAPANDGFSEVQHNRGGRGRGGQDQGEGRGGYRGRGRGGRGGGEFRGRGRG | 55800
6 | AAQKFVSDIAADAYQYARVRTNATTGGRSKAEKNAQGGSSAAAKDKSKTVLTL | 29700
7 | AAQRSVMLGHNLVTLEDILMTQRKWRAVLHETFYVRWIAVLRRWLCRLLDWPV | 42900
8 | AARVSDYSMAQFRFLLKFLLVHGRWNYVRICKYTVGTFWKELLFYLTQALFQR | 48200
9 | AASAASEPAPKKRGRPARAKEEVVAAEPEPAVEQPKKGRGRGRKAAEPEPVAV | 18700
10 | AASAEDAVVGEKHKAEEPLDTNGDAKKAKVTNGNGEARKPGRPSKKDKKPQPT | 23100
11 | AASAPAASSPSASAPADEAAENGEEAASSSKNKKKKKKGAAGGAAPAAGGKKP | 40700
12 | AASETTAKKSRGRKRKTVPEPDCDDEDNTGAARCSQPRSRKRARTTAPAEPRE | 12200
13 | AASFISRTMLVLARQKFYNWYGVPQRRLYRDQSVHGTTKKRTWLIKLLSPLLF | 47200
14 | AASKKERQSESHASSKRARSSKNGRGADADSSDEEEAGRSSSRKSRRTSTGDR | 30200
15 | AASPEEVIAPKSKRQPRRNTQAVSADPASLTPPADTKPKRSRAPRKAKVTIAE | 13300
16 | AASQNVDAQPKPKPAQDNDLESESGTSSSSSSSSESGSESDSGSDDGSASGSG | < 6570
17 | AASWILLGFFIKQLYEEFGWAIFHVVGANPKMKTMYQWYQIMICLLKFDFFFF | 48500
18 | AATAEPEKKKGSKKDKAAAAPAPAAAPAKDAKSAKKAKKSAAPPPPPPAASSS | 15600
19 | AATNKYDATIQRMLSRSVFVTCNSWYRVGGTGKNTSIFPGPGMLFWWWTRQAR | 61100
20 | AATSEATTVFWHDPSGFVDRLLGLTRFWFFTLLRYSYRVYFLASRERSRKPLS | 66100
21 | AATTAEPERKKSSKDRKSPEIVSEAKKSKDSPGEVKRSSSKREKEKEKEKSSS | 37300

Row | Sequence | transcriptional activation domain activity
22 | AATTDGEASANEGALVPAGEGAAEGEAKKPRQRKPRVARPPRPAGEEPTGEPS | 45500
23 | ACAVLLSVVDGLTPLSIICASCSTTGAYWFCCFSMRFFVFIDLLGTLLLYLII | 74900
24 | ACFLGYPIQIDPTFTDFELLSSFSGVIDSCAQSDTLWDFNSFDVAAVLSPLLD | 143000
25 | ACIVFWMGSWVYKYQLMFVFVSKVESGGRVWNVVINRLLFCVVLMQCLMILTI | 73700
26 | ACLFTMELILHNIYAVAIRSAGSPVWSSFTPFELSMFGFWNLIIVWMKLLLPW | 54700
27 | ACSCLSLITIFVGSGVVFQWFVSLIGSVLFQSWILILLLHFRFRYCWRKQGRP | 49200
28 | ACVALVVLFADSLDDLIPGWGIVAWKIVCGFILVPLGFLPLRLLSFTSILGVM | 58500
29 | ADAAGEPAQANGESKSAKRRKQKKAAAAAKAAGATNADGTPAAAAEKPARAQR | 17100
30 | ADADAGKEAEGGAGGKRCKGCGKGEGEGEEGGLRRCARCKVVVYCGRECQKRD | 36700
31 | ADAGGKDKGEKVAGDAEGAPAEGKAEVKGEARAETAVEGAEQQSNGKKRKAAS | 34200
32 | ADALSARSPKKGKKGKKGKKGKKGKKGKKAGAAAAAAGGAAGANGAKAAGAKA | 33300
33 | ADANGGGLKAGGRVTIAIVRQAILEATSSPLQVYLKTCPLASKVFLVALLVRC | 58100
34 | ADASKWWLLGDSFEADVLTFVSLFQFVNSALIFNYGYIFRQAWYRNYLLVSVW | 56700
35 | ADASSSRPQQSKGDKGRSRAPGADRKQESSSSSARASGTGGNNTNGGSSSNNN | 34100
36 | ADCAVIGVNSEEEATELPRAYVVHAKGIPPSEQAAFGVSVQEWVKSRVARHKQ | 80600
37 | ADCAVIGVVSEEEATELPRAYVVHAKGIPPSEHEAFGVSVQEWIKSRVARHKQ | 53600
38 | ADDVGKWGAGLPGSAAVGGAGGGEEEEGKEKKAGGGMAARVLISEVSIKLLVP | 33800
39 | ADEEDADEEDADEEDAGEKDAGEKDAGEEGAGEEDAGEEDASAIDAAACRMVQ | 29800
40 | ADEEDLSSKPRCQRCRKSKKGCDRQRPCGRCKDAGIGIEGCVSEDEGNGRKGR | < 6570
41 | ADEEGEGEAEEKPKRKRATKKKVEEEDDEEEEEEEKPKPKARAKAGSSKKAAT | 21100
42 | ADEEPTSSLYRSNAKEVSRITTGSCSEIKNKLAGMQLGHNKQVSICSSGLCVP | 72000

Row | Sequence | transcriptional activation domain activity
43 | ADEYIFHLTHGTLCICEHQGEENVVVVNVKSIISVVAMVPFPFIVRGCNNQYF | 32600
44 | ADGEEEEEEGEAAGGSERPGIWGQALMELGSTVCTPKPKCVECPVTATCRAYQ | 55800
45 | ADIHDVVYYGTFTGIFPKLHWWIQKTLHLLKPFGLLSSRQVLVHFMLFHAEQR | 83800
46 | ADIICMIYLIVNYTLLVFVSEVPYHQRARICLRLFCSCNFVTNFYATSAIVYR | 51100
47 | ADKKAKKAAPPPKPESSSSSDSSESDSDAPKAAATVKAAAAAVKKAGKKAVAS | 60900
48 | ADMILGFFFKNFVWTFILFWYQLFCQFNGTMVFDYSLVTLYNLVFTSLPIAFL | 65600
49 | ADNNDDEDQDEEEATPAPKPRGGRAPKAAAAATKKSAAAKKAPATRGRKKIIE | 33500
50 | ADPNGAAAATTAAAPEKKAEEPVTPAKSSAAPASTSSTPASTNTTEKKKKNRL | 34700
51 | ADRLIRILRILMFNWKFWNTGCFATYDPNSNLVRLEIPCSRDLLGTKPGTYYY | 50200
52 | ADRTSRRRDDRSRSRDRGSSRRDSDRHRHHSRRSSRAERTKKEESQGNGTVPD | 17800
53 | ADSARGGDADAKYRDRDRQRQTETETDRQTKTERDTQRQRQRHRHTHTHSPVQ | 37200
54 | ADSDRHKKHKSSSSSSKSRHHDRDDDRDDNDKHSRRSHHKSSSSRHDRDRERG | 46300
55 | ADSGDEYVQDRRDGPAKGGKAPRREKDGRDEEGGRKKAAKKRKRKVQAQPEID | 30100
56 | ADSKTRNKRDGSNSTTSRSRSSRSRGEAVDDDGSSSSKRSSRSSRTDEGGAAR | 41400
57 | ADSRRKTRRVRKRKSSRRHQEEGEEEESESEEEEADARKRRKKEKGGGKDKKK | 23600
58 | ADTILITMVGIFDLIACFFTCIVQVLRFKMGISVQEILIWCWFDLLIFSTSTF | 34300
59 | AEAEKMDVDPAVSTAETEVKQESPAPAAATSVSTPEVKVTPSSAHPSLPAKPL | 18400
60 | AEAGTSKTAAKAEATPVEGTSAPVEGKAQKKEKKEKKPPAEEAGAGKKKGGAA | 16100
61 | AEAQEGRKKDAAAAAEKKEEESPKKEEESAAGEEKQAAPKKKPKKLERRGGAA | 41300

Reference: the supplement of paper PMC12636428
